According to patent US20230079439A1, “Compositions and Methods for Enhancing Beta Cell Maturation, Health and Function” (THE REGENTS OF THE UNIVERSITY OF CALIFORNIA, priority 2016, published 2023):

Biological target: transcellular partners
Experiment: cell-based or functional assay

half-maximal inhibition of insulin secretion by rat islets (20 mM glucose): 9 nM
Substance: Soluble neuroligin-2 extracellular domain (receptor)
